One molecule from patent publication US20170121382A1 (NORTHWESTERN UNIVERSITY, published 2017) can be followed below.

This experiment deals with T1, PHEX (phosphate-regulating gene with homology to endopeptidase on the X chromosome), endogenous mouse protein (mouse, UniProt P70669 1-749).
T1 construct: Endogenous PHEX of mouse bone extracts (coIP); The same id stands for the endogenous PHEX of mouse MC3T3-E1 cells and of mice in the functional rows; also called bone metallo-endopeptidase PHEX
T1 sequence (looked up): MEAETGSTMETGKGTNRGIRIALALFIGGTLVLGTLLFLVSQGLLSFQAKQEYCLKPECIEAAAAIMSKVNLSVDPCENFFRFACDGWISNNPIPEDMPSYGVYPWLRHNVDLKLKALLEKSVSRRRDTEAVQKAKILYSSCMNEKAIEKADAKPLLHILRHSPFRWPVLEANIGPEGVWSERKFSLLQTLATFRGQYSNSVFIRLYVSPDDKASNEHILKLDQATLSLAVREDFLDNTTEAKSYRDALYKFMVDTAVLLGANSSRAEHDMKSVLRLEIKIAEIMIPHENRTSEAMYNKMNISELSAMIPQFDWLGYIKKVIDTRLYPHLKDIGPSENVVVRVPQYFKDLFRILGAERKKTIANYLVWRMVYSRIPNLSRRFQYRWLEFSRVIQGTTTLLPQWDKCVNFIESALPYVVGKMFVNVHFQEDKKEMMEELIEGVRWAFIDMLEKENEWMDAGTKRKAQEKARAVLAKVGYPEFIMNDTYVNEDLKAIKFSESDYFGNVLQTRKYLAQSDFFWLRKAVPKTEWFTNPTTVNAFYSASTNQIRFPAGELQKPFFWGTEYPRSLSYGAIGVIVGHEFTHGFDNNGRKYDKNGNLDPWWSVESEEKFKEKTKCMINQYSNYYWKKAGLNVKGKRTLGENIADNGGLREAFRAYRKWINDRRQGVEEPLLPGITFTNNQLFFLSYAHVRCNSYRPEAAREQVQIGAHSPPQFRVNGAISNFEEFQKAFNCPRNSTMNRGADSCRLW
The experiment is described as follows: coIP, anti-PHEX antibody-coated beads, mouse bone extracts, Western blot for DMP1. Here is the method: FIGS. 4A-C. (FIG. 4A) PHEX binds to full length DMP1 and cDMP1. Bone protein extracts from WT and DMP1ko/cDMP1Tg were incubated with anti-PHEX antibody-coated beads. […] Negative control ((−) CTR) was obtained from uncoated beads to evaluate non-specific binding. […] The constant of dissociation (KD) between PHEX and the entire DMP1 protein reflecting binding affinity is as strong as the KD obtained previously between rPHEX and the small 19 amino acid MEPE-ASARM peptide. Data are normalized by non-specific binding at baseline and expressed as relative units (RU) of response difference. (FIG. 4C) Dose-dependent binding of rPHEX to rDMP1, represented by quantitation of the SPR sensorgram, confirms binding specificity.
Both PHEX and DMP1 are expressed by osteocytes. The ASARM sequence binds to PHEX. Co-immunoprecipitation (coIP) of PHEX and DMP1 were performed in endogenous bone protein extracts to test the presence of binding between PHEX and cDMP1. Magnetic beads were covalently coated with a PHEX antibody (Ab) and incubated with protein extracts isolated from WT or DMP1ko/cDMP1Tg mice. Detection of DMP1 in the protein pull-downs eluted from the beads was performed by Western Blot analysis using an Ab targeting the C-terminus region (FIG. 4A). […] In the DMP1ko/cDMP1Tg extracts in which full-length DMP1 is not expressed, only cDMP1 fragments were detected. […]

B1: full-length DMP1 (dentin matrix protein 1), endogenous mouse protein, ~100 kDa (other, UniProt O55188 17-503, looked up)
chain: LPVARYHNTESESSEERTGDLAGSPPPPTNSESSEESQASPEGQANSDHTDSSESGEELGYDRGQYRPAGGLSKSTGTGADKEDDEDDSGDDTFGDEDNDLGPEEGQWGGPSKLDSDEDSTDTTQSSEDSTSQENSAQDTPSDSKDHDSEDEADSRPEAGDSTQDSESEEQRVGGGSEGESSHGDGSEFDDEGMQSDDPESTRSDRGHARMSSAGIRSEESKGDHEPTSTQDSDDSQSVEFSSRKSFRRSHVSEEDYRGELTDSNSRETQSDSTEDTASKEESRSESQEDTAESQSQEDSPEGQDPSSESSEEAGEPSQESSSESQEGVTSESRGDNPDNTSQAGDQEDSESSEEDSLNTFSSSESQSTEEQADSESNESLSLSEESQESAQDGDSSSQEGLQSQSASTESRSQESQSEQDSRSEEDSDSQDSSRSKEESNSTGSASSSEEDIRPKNMEADSRKLIVDAYHNKPIGDQDDNDCQDGY
With B1, the binding result is reported as “binds”.
